Positions count from the first letter of the chain named.

One may read the Kd as the equilibrium constant for the complex coming apart. The term koff denotes a measure of how fast the partners let go of each other. High values mean a short-lived complex, low ones a long-lived complex. What is called kon is a measure of how fast the partners come together. Higher therefore signals fast association.

The target of test [1] is T1, human RXFP1 receptor (human, UniProt Q9HBX9 1-757).
T1 sequence (looked up): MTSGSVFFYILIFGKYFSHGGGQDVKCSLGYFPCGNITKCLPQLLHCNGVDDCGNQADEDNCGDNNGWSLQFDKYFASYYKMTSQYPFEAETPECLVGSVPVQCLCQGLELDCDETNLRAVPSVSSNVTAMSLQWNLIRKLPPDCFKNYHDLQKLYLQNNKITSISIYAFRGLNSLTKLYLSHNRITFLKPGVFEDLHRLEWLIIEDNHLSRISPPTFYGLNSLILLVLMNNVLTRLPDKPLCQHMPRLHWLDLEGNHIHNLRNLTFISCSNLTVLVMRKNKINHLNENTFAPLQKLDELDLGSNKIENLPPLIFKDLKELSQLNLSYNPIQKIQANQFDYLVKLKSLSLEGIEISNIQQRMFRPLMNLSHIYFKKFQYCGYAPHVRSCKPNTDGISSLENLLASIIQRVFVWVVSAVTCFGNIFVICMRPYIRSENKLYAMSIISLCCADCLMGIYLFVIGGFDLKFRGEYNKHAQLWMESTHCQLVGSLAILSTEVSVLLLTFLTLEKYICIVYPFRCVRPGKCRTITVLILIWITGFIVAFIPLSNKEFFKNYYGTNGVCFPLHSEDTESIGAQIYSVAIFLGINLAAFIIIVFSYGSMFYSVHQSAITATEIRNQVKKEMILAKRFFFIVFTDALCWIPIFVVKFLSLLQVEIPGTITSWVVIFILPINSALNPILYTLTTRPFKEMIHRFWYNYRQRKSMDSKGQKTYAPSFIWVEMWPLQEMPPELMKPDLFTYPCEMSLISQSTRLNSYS
The test is described as follows: cell-based or functional assay.

Test [2] deals with T2, rat serum albumin (rat).
T2 chain: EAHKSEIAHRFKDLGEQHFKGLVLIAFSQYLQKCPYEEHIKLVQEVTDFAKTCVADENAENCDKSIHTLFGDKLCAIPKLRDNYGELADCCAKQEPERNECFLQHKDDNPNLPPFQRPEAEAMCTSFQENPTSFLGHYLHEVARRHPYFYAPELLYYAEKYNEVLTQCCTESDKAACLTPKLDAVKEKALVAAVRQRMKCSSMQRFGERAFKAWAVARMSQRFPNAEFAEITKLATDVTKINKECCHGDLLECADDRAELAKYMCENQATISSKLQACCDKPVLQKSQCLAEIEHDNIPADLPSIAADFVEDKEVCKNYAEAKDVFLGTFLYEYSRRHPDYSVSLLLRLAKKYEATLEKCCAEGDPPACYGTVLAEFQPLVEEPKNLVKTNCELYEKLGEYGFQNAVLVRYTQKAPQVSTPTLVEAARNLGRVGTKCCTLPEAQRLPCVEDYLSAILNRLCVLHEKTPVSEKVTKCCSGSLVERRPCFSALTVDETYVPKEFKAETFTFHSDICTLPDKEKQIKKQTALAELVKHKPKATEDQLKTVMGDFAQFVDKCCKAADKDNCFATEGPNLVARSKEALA
The test is described as follows: SPR Biacore T200, fusion protein captured by anti-VHH antibody, albumin as analyte. Here is the method: (§1) Coupling of an anti-VHH antibody (MonoRab™ Rabbit Anti-Camelid VHH Cocktail, Genescript, Cat No. A02014) to an S series CM5 sensor chip (GE, Cat No. 29-1049-88) was performed using an amino coupling kit (GE, Cat No. BR-1000-50). The antibody was diluted to 10 μg/mL with 10 mM sodium acetate (pH 4.5) (GE, Cat No. BR-1003-50). After the CM5 chip was activated with EDC/NHS, the diluted anti-VHH antibody was flowed over the chip to reach a surface response value of about 5000 RU, and then the chip was blocked with ethanolamine for later use.
(§2) The albumin from each species was serially diluted in a gradient with 1XHBS-EP (10 mM HEPES, pH 7.4, 150 mM NaCl, 3 mM EDTA, 0.05% Surfactant P20). The test fusion protein molecule was captured using the anti-VHH antibody-coupled chip, with a response value of about 30 RU. Then, different concentrations of serum albumin were flowed over the surface of the chip for 3 min at a flow rate of 50 μL/min, with a dissociation time of 1-10 min (the dissociation time varied depending on the species of albumin). After the end of each cycle, the chip was regenerated using 10 mM glycine-hydrochloric acid (pH 1.5) (GE, Cat No. BR-1003-54). The reaction signals were detected in real-time using Biacore T200 (GE) to obtain the association and dissociation curves, and the data obtained were fitted with a Langmuir 1:1 binding model using the BIAevaluation version 4.1 software at appropriate concentration points to obtain the affinity values.
A general note: SPR reads the build-up and loss of mass on a sensor chip optically.

The target in test [3] is human serum albumin (HSA) (human). The test is described as above. The protocol: as §1, §2
In test [4] the target is mouse serum albumin (mSA) (mouse). Nature of the test: SPR Biacore T200, albumin amine-coupled, fusion protein as analyte. Here is the method: (§3) Coupling of serum albumins from different species to an S series CM5 sensor chip (GE, Cat. 29-1049-88) was performed using an amino coupling kit (GE, Cat No. BR-1000-50). The albumin from each species was diluted to 2 μg/mL. After the CM5 chip was activated with EDC/NHS, the diluted albumin was flowed over the chip to reach a surface response value of about 200 (180 to 230) RU, and then the chip was blocked with ethanolamine. The blank control channel also needed to be activated with EDC/NHS and blocked with ethanolamine. […] The samples of 0051 and 0054 at different concentrations were separately flowed through the albumin-coupled and blank channels for 3 min at a flow rate of 50 μL/min, with a dissociation time of 4 min. After the end of each cycle, the chip was regenerated using 10 mM glycine-hydrochloric acid (pH 1.5) (GE, Cat. #BR-1003-54). The reaction signals were detected in real-time using Biacore T200 (GE) to obtain the association and dissociation curves, and the data obtained were fitted with a Langmuir 1:1 binding model using the BIAevaluation version 4.1 software at appropriate concentration points to obtain the affinity values.

Test [5] addresses T2, rat serum albumin. Described as above. The protocol: as §3
Test [6] deals with human serum albumin (HSA) (human). The description is as above. Here is the method: as §3

B1: 0065 (other)
chain: EVQLLESGGGLVQPGGSLRLSCAASGFTFLTSCMGWFRQAPGKEREGVSSIYTVGGSTFYTNSVKGRFTISRDNSKNTLYLQMNSLRPEDTAVYYCAAGSPARCRLRDPTTFDYWGQGTLVTVSSGGGGQGGGGQGGGGQGGGGQGGGGQSWMEEVIKLCGRELVRAQIAICGMSTWSGGGSGGSGGGQLYSALANKCCHVGCTKRSLARFC
notes: Single-chain fusion: anti-HSA VHH, linker, relaxin-2 B chain, linker, relaxin-2 A chain; also called fusion protein 0065
With B1, in test [1], the “EC50 (nM), cAMP production in THP1 cells, 1% HSA” value (“EC50 (nM) … 1% HSA” below) stood at 23 nM and the “EC50 (nM), cAMP production in THP1 cells, without HSA” value (from here on “EC50 (nM) … without HSA”) amounted to 2.08 nM. In test [2], binding was put at a Kd of 159 nM, the koff worked out at 0.00567 s⁻¹ and the kon turned out to be 35700 M⁻¹ s⁻¹. In test [3], this molecule came in with a Kd of 9.68 nM, a koff of 0.000797 s⁻¹ and a kon of 82300 M⁻¹ s⁻¹.

B2: 0064 (other)
chain: B1 chain with F27N, F29Y, R87Q
notes: Single-chain fusion: anti-HSA VHH, linker, relaxin-2 B chain, linker, relaxin-2 A chain; also called fusion protein 0064
As for B2, in test [1], the “EC50 (nM) … 1% HSA” value is 19.8 nM and the “EC50 (nM) … without HSA” value is 8.5 nM. In test [2], this molecule displayed a Kd of 58.5 nM, a koff of 0.00579 s⁻¹ and an on-rate constant (kon) of 98900 M⁻¹ s⁻¹. Further, in test [3], the dissociation constant Kd was found to be 5.59 nM, the koff turned out to be 0.00086 s⁻¹ and the kon turned out to be 154000 M⁻¹ s⁻¹.

B3: 0054 (other)
chain: EVQLLESGGGLVQPGGSLRLSCAASGRYIDETAVAWFRQAPGKGREFVAGIGGGVDITYYADSVKGRFTISRDNSKNTLYLQMNSLRPEDTAVYYCAARPGRPLITSKVADLYPYWGQGTLVTVSSGGGGQGGGGQGGGGQGGGGQGGGGQSWMEEVIKLCGRELVRAQIAICGMSTWSGGGSGGSGGGQLYSALANKCCHVGCTKRSLARFC
notes: also called positive control 0054; positive control molecule 0054
For the molecule B3, the Kd turned out to be 183 nM in test [2]; 15.8 nM in test [3]; 1.37 nM in test [4]; 1.06 nM in test [5]; 0.099 nM in test [6]. Besides, the koff in test [2] was determined as 0.0113 s⁻¹; in test [3], 0.000563 s⁻¹; in test [4], 0.0027 s⁻¹; in test [5], 0.00246 s⁻¹; in test [6], 0.000181 s⁻¹. For the same molecule, the kon was 61500 M⁻¹ s⁻¹ in test [2]; 35700 M⁻¹ s⁻¹ in test [3]; 1.97e+06 M⁻¹ s⁻¹ in test [4]; 2.31e+06 M⁻¹ s⁻¹ in test [5]; 1.83e+06 M⁻¹ s⁻¹ in test [6].

B4: 0052 (other)
chain: EVQLLESGGGLVQPGGSLRLSCAASGFTFLTSCMGWFRQAPGKEREGVSSIYTVGGSTFYTNSVKGRFTISRDNSKNTLYLQMNSLRAEDTAVYYCAAGSPARCRLRDPTTFDYWGQGTLVTVSSPGPAPGPAPGPAPGPAPGPAPGPAPGPAPGPASWMEEVIKLCGRELVRAQIAICGMSTWSGGGSGGSGGGQLYSALANKCCHVGCTKRSLARFC
notes: Single-chain fusion: anti-HSA VHH, linker, relaxin-2 B chain, linker, relaxin-2 A chain; also called fusion protein 0052
Consider B4, for which, in test [1], the “EC50 (nM) … 1% HSA” value stood at 21.5 nM and the “EC50 (nM) … without HSA” value came out at 5.22 nM. In test [2], the Kd was 145 nM, the koff was found to be 0.00599 s⁻¹ and the kon amounted to 41300 M⁻¹ s⁻¹. In test [3], the Kd was determined as 9.65 nM, the koff came out at 0.000867 s⁻¹ and the kon is 89900 M⁻¹ s⁻¹.
